Paper PMC4692527

Assays:
[1] = target: FvTox1 in the pLexA vector (LexA fusion) (Fusarium virguliforme); assay: two-hybrid; LexA two-hybrid system, yeast EGY48 [pSH18-34]; FvTox1 in pLexA, peptides in pB42AD; reporters LacZ and LEU2; quantitative β-galactosidase activity (Miller units), three biological replications
[2] = target: GST-tagged FvTox1 (Fusarium virguliforme); assay: pull-down; purified His-tagged peptides/fusion proteins mixed with GST-tagged FvTox1, pulled down with glutathione resin; western blot with anti-His antibody; relative percent pulled down, two independent experiments

| Molecule | β-galactosidase activity [1] | percent peptide pulled down by FvTox1 (relative binding strength) [2] |
| --- | --- | --- |
| soybean GmGD1, a glycine cleavage protein (natural protein) | 5.79 Miller units |  |
| soybean GmTRX3, a thioredoxin protein (natural protein) | 9.64 Miller units |  |
| GGGGSGGGGSGGGGSVENKTRYHDREVGGGGS [synthetic FvTox1-interacting peptide 2 (His-tagged, expressed in E. coli)] |  | 5.5 percent |
| GGGGSGGGGSGGGGSVENKTRYHDREVGGGGS [synthetic FvTox1-interacting peptide 2 in pB42AD (no flanking cysteines)] | 5.88 Miller units |  |
| synthetic FvTox1-interacting fusion peptide 7 (PEP1-PEP2-PEP3; His-tagged, expressed in E. coli) (designed binder) GSGGGGSGGGGSGGGGSSYLPETIYEYRLGGGGSELGGGGSGGGGSGGGGSVENKTRYHDREVGGGGSLEGGGGSGGGGSGGGGSHEGAWHNYARSVGGGGS |  | 38.5 percent |
| synthetic FvTox1-interacting fusion peptide 7 in pB42AD (no flanking cysteines) (designed binder) GSGGGGSGGGGSGGGGSSYLPETIYEYRLGGGGSELGGGGSGGGGSGGGGSVENKTRYHDREVGGGGSLEGGGGSGGGGSGGGGSHEGAWHNYARSVGGGGS | 6.12 Miller units |  |
| synthetic FvTox1-interacting fusion peptide 9 (PEP1-PEP2-PEP3-PEP4; His-tagged, expressed in E. coli) (designed binder) GGGGSGGGGSGGGGSSYLPETIYEYRLGGGGSELGGGGSGGGGSGGGGSVENKTRYHDREVGGGGSLEGGGGSGGGGSGGGGSHEGAWHNYARSVGGGGSGTGGGGSGGGGSGGGGSSNGRVADGGGGS |  | 47 percent |
| synthetic FvTox1-interacting fusion peptide 9 in pB42AD (no flanking cysteines) (designed binder) GGGGSGGGGSGGGGSSYLPETIYEYRLGGGGSELGGGGSGGGGSGGGGSVENKTRYHDREVGGGGSLEGGGGSGGGGSGGGGSHEGAWHNYARSVGGGGSGTGGGGSGGGGSGGGGSSNGRVADGGGGS | 5.64 Miller units |  |
| synthetic FvTox1-interacting fusion peptide 8 (PEP1-PEP2-PEP4; His-tagged, expressed in E. coli) (designed binder) GGGGSGGGGSGGGGSSYLPETIYEYRLGGGGSELGGGGSGGGGSGGGGSVENKTRYHDREVGGGGSLEGGGGSGGGGSGGGGSSNGRVADGGGGS |  | 26 percent |
| synthetic FvTox1-interacting fusion peptide 8 in pB42AD (no flanking cysteines) (designed binder) GGGGSGGGGSGGGGSSYLPETIYEYRLGGGGSELGGGGSGGGGSGGGGSVENKTRYHDREVGGGGSLEGGGGSGGGGSGGGGSSNGRVADGGGGS | 3.35 Miller units |  |
| GGGGSGGGGSGGGGSSYLPETIYEYRLGGGGS [synthetic FvTox1-interacting peptide 1 in pB42AD (no flanking cysteines)] | 6.59 Miller units |  |
| GGGGSGGGGSGGGGSSYLPETIYEYRLGGGGS [synthetic FvTox1-interacting peptide 1 (His-tagged, expressed in E. coli)] |  | 3.9 percent |
| GGGGSGGGGSGGGGSSNGRVADGGGGS [synthetic FvTox1-interacting peptide 4 in pB42AD (no flanking cysteines)] | 6.45 Miller units |  |
| GGGGSGGGGSGGGGSHEGAWHNYARSVGGGGS [synthetic FvTox1-interacting peptide 3 (His-tagged, expressed in E. coli)] |  | 2.7 percent |
| GGGGSGGGGSGGGGSHEGAWHNYARSVGGGGS [synthetic FvTox1-interacting peptide 3 in pB42AD (no flanking cysteines)] | 5.87 Miller units |  |
| synthetic FvTox1-interacting fusion peptide 5 (PEP1-PEP2; His-tagged, expressed in E. coli) (designed binder) GGGGSGGGGSGGGGSSYLPETIYEYRLGGGGSELGGGGSGGGGSGGGGSVENKTRYHDREVGGGGS |  | 31.8 percent |
| synthetic FvTox1-interacting fusion peptide 5 in pB42AD (no flanking cysteines) (designed binder) GGGGSGGGGSGGGGSSYLPETIYEYRLGGGGSELGGGGSGGGGSGGGGSVENKTRYHDREVGGGGS | 3.11 Miller units |  |
| synthetic FvTox1-interacting fusion peptide 6 (PEP3-PEP4; His-tagged, expressed in E. coli) (designed binder) GGGSGGGGSGGGGSHEGAWHNYARSVGGGGSELGGGGSGGGGSGGGGSSNGRVADGGGGS |  | 8.8 percent |
| synthetic FvTox1-interacting fusion peptide 6 in pB42AD (no flanking cysteines) (designed binder) GGGSGGGGSGGGGSHEGAWHNYARSVGGGGSELGGGGSGGGGSGGGGSSNGRVADGGGGS | 5.32 Miller units |  |
| GGGGSGGGGSGGGGSSNGRVADGGGGS [synthetic FvTox1-interacting peptide 4 (His-tagged, expressed in E. coli)] |  | 2.3 percent |
